Legend:
[1] = molecular target: Hyphochytrium catenoides kalium channelrhodopsin 1 (HcKCR1) (Hyphochytrium catenoides); experiment: cryo-EM structure
[2] = molecular target: Hyphochytrium catenoides kalium channelrhodopsin 2 (HcKCR2) (Hyphochytrium catenoides); experiment: cryo-EM structure

stoichiometry N [1] | stoichiometry N [2] | Substance
3 |  | Hyphochytrium catenoides kalium channelrhodopsin 1 (HcKCR1) (natural protein)
 | 3 | Hyphochytrium catenoides kalium channelrhodopsin 2 (HcKCR2) (natural protein)
